The values that follow come from patent publication US7612188.

For this data set, the target named is tissue factor (Innovin, Dade) (UniProt P13726).
Sequence of UniProt P13726 (P13726 33-295): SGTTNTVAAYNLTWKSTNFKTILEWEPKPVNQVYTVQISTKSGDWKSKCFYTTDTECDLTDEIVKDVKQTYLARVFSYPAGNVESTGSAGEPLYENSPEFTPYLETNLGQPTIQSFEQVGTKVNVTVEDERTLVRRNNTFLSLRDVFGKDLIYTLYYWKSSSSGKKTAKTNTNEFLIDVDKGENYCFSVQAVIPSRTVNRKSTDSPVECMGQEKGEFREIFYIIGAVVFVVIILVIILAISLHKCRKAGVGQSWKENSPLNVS

On to Human factor VIIa-T9Q11E33, for which the “competition clotting assay with FFR-VIIa (0 to 3.5 nM) and Innovin, compared with VIIa-Q11E33” value is on record as “Human factor VIIa-T9Q11E33 exhibited a severe loss of competitive binding affinity”.
For the substance “factor VII with leucine for phenylalanine at position 5 and the Q11E33 mutations”, the “competition clotting assay with active site modified VIIa (0-3.2 nM), compared with the Q11E33 mutant” value is “had much lower activity than the Q11E33 mutant”.
